In general, Km refers to the concentration of substrate that gives half-maximal velocity. By kcat is commonly meant the number of substrate molecules converted per active site and unit of time at saturation. Broadly, the kcat/Km is the second-order rate constant that governs catalysis at low substrate concentration.

Data set [1] addresses T1, ACMO (Gordonia sp. TY-5, UniProt A1IHE6).
T1 construct: gene acmA; full-length, codon-optimised gene in pGEX4T1, E. coli DH5alpha; N-terminal GST removed with thrombin; calculated mass 59,780 Da
Nature of the data set: NADPH oxidation at […] nm, competitive inhibition fit. The data set is classed as biochemical. The conditions noted are these: read-out: Measured values.

Data set [2] deals with T2, GSTACMO (Gordonia sp. TY-5, UniProt A1IHE6).
T2 construct: gene acmA; full-length with N-terminal GST tag kept (pGEX4T1), E. coli DH5alpha
Nature of the data set: flavin absorbance titration at […] nm, quadratic fit. Format: binding.

Data set [3] addresses T3, GSTACMO (Gordonia sp. TY-5, UniProt A1IHE6, H325K).
T3 construct: gene acmA; full-length with N-terminal GST tag kept (pGEX4T1), E. coli DH5alpha
Nature of the data set: flavin absorbance titration at […] nm, quadratic fit. The data set is classed as binding.

The target of data set [4] is T4, ACMO (Gordonia sp. TY-5, UniProt A1IHE6, H325K).
T4 construct: gene acmA; full-length, codon-optimised gene in pGEX4T1, E. coli DH5alpha; N-terminal GST removed with thrombin; calculated mass 59,780 Da
Nature of the data set: NADPH oxidation at […] nm, competitive inhibition fit. The data set is classed as biochemical. The conditions noted are these: read-out: Measured values.

Data set [5] addresses T2, GSTACMO. Nature of the data set: stopped-flow flavin reduction at […] nm, hyperbolic fit of kobs. Format: biochemical. The conditions noted are these: 50 mM HEPES pH 7.5, 20% glycerol, 25 °C, anaerobic; oxidized enzyme; text b56 prints 121; table labels it ACMO, done on GSTACMO; read-out: Measured values.
Data set [6] concerns CC(=O)Cc1ccccc1. The data set can be described thus: purified protein. Format: biochemical, Gordonia sp. TY-5. The conditions noted are these: 100 µM NADPH, air-saturated 50 mM HEPES pH 7.5, 25 °C.
Substrate in data set [7]: O=C1CCCCC1
The data set can be described thus: purified protein. The data set is classed as biochemical, Gordonia sp. TY-5. The conditions noted are these: 100 µM NADPH, air-saturated 50 mM HEPES pH 7.5, 25 °C.

Substrate in data set [8]: CCCC(C)=O
Nature of the data set: purified protein. Format: biochemical, Gordonia sp. TY-5. The conditions noted are these: 100 µM NADPH, air-saturated 50 mM HEPES pH 7.5, 25 °C.

Substrate in data set [9]: CC(C)C(=O)C(C)C
The data set can be described thus: purified protein. Format: biochemical, Gordonia sp. TY-5. The conditions noted are these: 100 µM NADPH, air-saturated 50 mM HEPES pH 7.5, 25 °C.

Substrate in data set [10]: O=C1CCC1
Nature of the data set: purified protein. Format: biochemical, Gordonia sp. TY-5. The conditions noted are these: 100 µM NADPH, air-saturated 50 mM HEPES pH 7.5, 25 °C.

Substrate in data set [11]: CCC(C)=O
Nature of the data set: purified protein. Format: biochemical, Gordonia sp. TY-5. The conditions noted are these: 100 µM NADPH.

Substrate in data set [12]: O=C1CC2C=CCC12
Nature of the data set: purified protein. Format: biochemical, Gordonia sp. TY-5. The conditions noted are these: 100 µM NADPH, air-saturated 50 mM HEPES pH 7.5, 25 °C.

Substrate in data set [13]: O=C1CCCC1
The data set can be described thus: purified protein. Format: biochemical, Gordonia sp. TY-5. The conditions noted are these: 100 µM NADPH, air-saturated 50 mM HEPES pH 7.5, 25 °C.

Substrate in data set [14]: NC(=O)C1=CN([C@@H]2O[C@H](COP(=O)(O)OP(=O)(O)OC[C@H]3O[C@@H](n4cnc5c(N)ncnc54)[C@H](OP(=O)(O)O)[C@@H]3O)[C@@H](O)[C@H]2O)C=CC1
Nature of the data set: purified protein. Format: biochemical, Gordonia sp. TY-5. The conditions noted are these: 200 μM butanone.

Substrate in data set [15]: CCCCCC(C)=O
Nature of the data set: purified protein. The data set is classed as biochemical, Gordonia sp. TY-5. The conditions noted are these: 100 µM NADPH, air-saturated 50 mM HEPES pH 7.5, 25 °C.

Substrate in data set [16]: CC(C)=O
Nature of the data set: purified protein. Format: biochemical, Gordonia sp. TY-5. The conditions noted are these: 100 µM NADPH, air-saturated 50 mM HEPES pH 7.5, 25 °C.

Substrate in data set [17]: CC(=O)C(C)C
Nature of the data set: purified protein. The conditions noted are these: 100 µM NADPH, air-saturated 50 mM HEPES pH 7.5, 25 °C. The data set is classed as biochemical, Gordonia sp. TY-5.

Setting [18] is: air-saturated 50 mM HEPES pH 7.5, 25 °C.
[19] abbreviates: 50 mM HEPES pH 7.5, 25 °C, GST tag state not told, table row identical to the NADPH row, possible duplication.
[20] abbreviates: 50 mM HEPES pH 7.5, 25 °C, GST tag state not told, table row identical to the butanone row, possible duplication.

As for `NC(=O)c1ccc[n+]([C@@H]2O[C@H](COP(=O)(O)OP(=O)(O)OC[C@H]3O[C@@H](n4cnc5c(N)ncnc54)[C@H](OP(=O)(O)O)[C@@H]3O)[C@@H](O)[C@H]2O)c1` [NADP^+], the figures for the Ki in data set [1] and in data set [4] were 166 ± 13 µM and 27 ± 6 µM, respectively. Further, the values for the Kd in data set [2] and in data set [3] were 21.1 ± 4.1 µM and 0.5 ± 0.04 µM, respectively.

As for `NC(=O)C1=CN([C@@H]2O[C@H](COP(=O)(O)OP(=O)(O)OC[C@H]3O[C@@H](n4cnc5c(N)ncnc54)[C@H](OP(=O)(O)O)[C@@H]3O)[C@@H](O)[C@H]2O)C=CC1` [NADPH], in [5], the Kd is 120 ± 14 µM.

Consider ACMO (Gordonia sp. TY-5), for which, in [6], the Km is on record as 8.9 ± 1.5 µM, the kcat is 1 ± 0.1 s⁻¹ and the kcat/Km amounted to 112000 ± 20000 M⁻¹ s⁻¹.

B1: ACMO (Gordonia sp. TY-5) (protein)
chain: MSTTTLDAAVIGTGVAGLYELHMLREQGLEVRAYDKASGVGGTWYWNRYPGARFDSEAYIYQYLFDEDLYKGWSWSQRFPGQEEIERWLNYVADSLDLRRDISLETEITSAVFDEDRNRWTLTTADGDTIDAQFLITCCGMLSAPMKDLFPGQSDFGGQLVHTARWPKEGIDFAGKRVGVIGNGATGIQVIQSIAADVDELKVFIRTPQYALPMKNPSYGPDEVAWYKSRFGELKDTLPHTFTGFEYDFTDAWEDLTPEQRRARLEDDYENGSLKLWLASFAEIFSDEQVSEEVSEFVREKMRARLVDPELCDLLIPSDYGFGTHRVPLETNYLEVYHRDNVTAVLVRDNPITRIRENGIELADGTVHELDVIIMATGFDAGTGALTRIDIRGRDGRTLADDWSRDIRTTMGLMVHGYPNMLTTAVPLAPSAALCNMTTCLQQQTEWISEAIRHLRATGKTVIEPTAEGEEAWVAHHDELADANLISKTNSWYVGSNVPGKPRRVLSYVGGVGAYRDATLEAAAAGYKGFALS
notes: full-length, codon-optimised gene in pGEX4T1, E. coli DH5alpha; N-terminal GST removed with thrombin; calculated mass 59,780 Da
As to B1, the Michaelis constant (Km) in data set [7] amounted to 2400 ± 400 µM; in data set [8], 0.37 ± 0.06 µM; in data set [9] it was 1500 ± 220 µM; in data set [10] it was 1.5 ± 0.2 µM; in [11] (setting [18]), 0.34 ± 0.03 µM; in data set [12], 6.7 ± 1.3 µM. The Km was determined as 120 ± 11 µM in data set [13]; 6.7 ± 0.8 µM in [14] (setting [18]); 1.5 ± 0.1 µM in [15]; 170 ± 11 µM in data set [16]; 4.4 ± 0.5 µM in [17]. The kcat amounted to 3.6 ± 0.2 s⁻¹ in data set [7]; 1.9 ± 0.1 s⁻¹ in data set [8]; 1.5 ± 0.1 s⁻¹ in data set [9]; 2 ± 0.1 s⁻¹ in data set [10]; 2.1 ± 0.1 s⁻¹ in [11] (setting [18]); 1.5 ± 0.1 s⁻¹ in data set [12]. Further, the kcat in data set [13] worked out at 4.3 ± 0.1 s⁻¹; in data set [14] (setting [18]), 2 ± 0.1 s⁻¹; in data set [15], 3.9 ± 0.1 s⁻¹; in data set [16] it was 1.4 ± 0.2 s⁻¹; in data set [17] it was 2.2 ± 0.1 s⁻¹. The kcat/Km in [7] turned out to be 1500 ± 300 M⁻¹ s⁻¹; in data set [8], 4.8e+06 ± 760000 M⁻¹ s⁻¹; in data set [9], 1000 ± 150 M⁻¹ s⁻¹; in [10], 1.4e+06 ± 190000 M⁻¹ s⁻¹; in [11] (setting [18]) it was 6e+06 ± 550000 M⁻¹ s⁻¹; in data set [12], 220000 ± 45000 M⁻¹ s⁻¹. Besides, the kcat/Km in data set [13] stood at 35000 ± 3200 M⁻¹ s⁻¹; in data set [14] (setting [18]), 300000 ± 36000 M⁻¹ s⁻¹; in data set [15], 2.6e+06 ± 130000 M⁻¹ s⁻¹; in [16], 8500 ± 590 M⁻¹ s⁻¹; in [17], 510000 ± 55000 M⁻¹ s⁻¹.

B2: GSTACMO (Gordonia sp. TY-5) (protein)
chain: MSTTTLDAAVIGTGVAGLYELHMLREQGLEVRAYDKASGVGGTWYWNRYPGARFDSEAYIYQYLFDEDLYKGWSWSQRFPGQEEIERWLNYVADSLDLRRDISLETEITSAVFDEDRNRWTLTTADGDTIDAQFLITCCGMLSAPMKDLFPGQSDFGGQLVHTARWPKEGIDFAGKRVGVIGNGATGIQVIQSIAADVDELKVFIRTPQYALPMKNPSYGPDEVAWYKSRFGELKDTLPHTFTGFEYDFTDAWEDLTPEQRRARLEDDYENGSLKLWLASFAEIFSDEQVSEEVSEFVREKMRARLVDPELCDLLIPSDYGFGTHRVPLETNYLEVYHRDNVTAVLVRDNPITRIRENGIELADGTVHELDVIIMATGFDAGTGALTRIDIRGRDGRTLADDWSRDIRTTMGLMVHGYPNMLTTAVPLAPSAALCNMTTCLQQQTEWISEAIRHLRATGKTVIEPTAEGEEAWVAHHDELADANLISKTNSWYVGSNVPGKPRRVLSYVGGVGAYRDATLEAAAAGYKGFALS
notes: full-length with N-terminal GST tag kept (pGEX4T1), E. coli DH5alpha
For B2, in data set [7], the Km is on record as 2300 ± 380 µM, the kcat turned out to be 2.8 ± 0.1 s⁻¹ and the kcat/Km is 1200 ± 200 M⁻¹ s⁻¹.

B3: ACMO (Gordonia sp. TY-5; H325K) (protein)
chain: MSTTTLDAAVIGTGVAGLYELHMLREQGLEVRAYDKASGVGGTWYWNRYPGARFDSEAYIYQYLFDEDLYKGWSWSQRFPGQEEIERWLNYVADSLDLRRDISLETEITSAVFDEDRNRWTLTTADGDTIDAQFLITCCGMLSAPMKDLFPGQSDFGGQLVHTARWPKEGIDFAGKRVGVIGNGATGIQVIQSIAADVDELKVFIRTPQYALPMKNPSYGPDEVAWYKSRFGELKDTLPHTFTGFEYDFTDAWEDLTPEQRRARLEDDYENGSLKLWLASFAEIFSDEQVSEEVSEFVREKMRARLVDPELCDLLIPSDYGFGTKRVPLETNYLEVYHRDNVTAVLVRDNPITRIRENGIELADGTVHELDVIIMATGFDAGTGALTRIDIRGRDGRTLADDWSRDIRTTMGLMVHGYPNMLTTAVPLAPSAALCNMTTCLQQQTEWISEAIRHLRATGKTVIEPTAEGEEAWVAHHDELADANLISKTNSWYVGSNVPGKPRRVLSYVGGVGAYRDATLEAAAAGYKGFALS
notes: as for B1
Consider B3, for which, in data set [11] (setting [19]), the Km turned out to be 0.48 ± 0.05 µM, the kcat was 1.6 ± 0.1 s⁻¹ and the kcat/Km came out at 3.25e+06 ± 320000 M⁻¹ s⁻¹. In [14] (setting [20]), the Km is 0.48 ± 0.05 µM, the kcat was found to be 1.6 ± 0.1 s⁻¹ and the kcat/Km came to 3.25e+06 ± 320000 M⁻¹ s⁻¹.

(Values after publication PMC6215540, “Kinetic characterization of acetone monooxygenase from Gordonia sp. strain TY-5” (AMB Express, 2018).)
